This data set concerns the molecule itself. As to the kind of experiment: Coomassie-stained gel; self-association inferred from a band of about 17 kD against a 3.5 kD monomer.

B1: C-POD, CGGG(ARKKAAKA)4 (peptide)
peptide: CGGGARKKAAKAARKKAAKAARKKAAKAARKKAAKA
notes: Synthetic peptide with a 3.5 kD monomer; also called cysteine containing POD; cysteine-POD
In the case of B1, the binding result was “binds”.

These data come from patent US20100209447A1 (TUFTS UNIVERSITY, published 2010).
